US20070004619A1, “Relaxin superfamily peptide analogues” (Howard Florey Institute of Experimental Physiology and …, priority 2003, published 2007)
Positions of bridges follow the written chain, without caps; N, C: chain ends. No end group written: not given here.

How the values were obtained:
human LGR8 = molecular target: T1, human LGR8 (Homo sapiens, UniProt Q8WXD0); experiment: Functional cAMP assay: inhibition of the INSL3 response at the native INSL3 receptor (LGR8); type: cell-based; settings: FIG. 4; human 293T cells stably transfected with human LGR8; cAMP ELISA
T1 construct: expressed in transfected cells; host or cells: human 293T cells, stably transfected
Experimental: Human 293T cells stably transfected with human LGR7, or LGR8 were preincubated in the presence of 0.25 mM 3-isobutyl-1-methyl xanthine (IBMX, Sigma) before various treatments for 30 minutes. At the end of the incubation cells were lysed for measurement of cAMP using a well-characterized cAMP ELISA (Satoko et al., J Biol Chem, 278:7855-7862). All experiments were repeated at least three times using cells from independent transfections, Results are plotted as pmol cAMP/10^4 cells.

[1] = Circular dichroism (CD) spectroscopy; type: physicochemical; settings: FIG. 5; in water and phosphate buffered saline
Experimental: Circular Dichroism (CD) Spectroscopy:
CD spectra were taken on a Jasco J-720 instrument at room temperature in a 1 mm path-length cell, Doubly distilled water, 10 mM sodium phosphate buffer containing 120 mM NaCl pH 7.4, and spectroscopy grade trifluoroethanol (TFE) were used as solvents. The peptide concentrations were made to 1 μM, determined by quantitative RP-HPLC and amino acid analysis (ref). Curves were smoothed by the algorithm provided by Jasco, Mean residue ellipticity ([θ]MR) is expressed in degrees×cm2/dmole by using the molecular mass. CD spectra evaluations were based on comparison with known peptide conformations (Otvos, L., Jr. 1996. from Neuropeptide protocols. Irvine, G. & Williams, C., Eds. pp 153-161. Humana Press, Totowa, N.J.).

T1 sequence (Q8WXD0 whole entry): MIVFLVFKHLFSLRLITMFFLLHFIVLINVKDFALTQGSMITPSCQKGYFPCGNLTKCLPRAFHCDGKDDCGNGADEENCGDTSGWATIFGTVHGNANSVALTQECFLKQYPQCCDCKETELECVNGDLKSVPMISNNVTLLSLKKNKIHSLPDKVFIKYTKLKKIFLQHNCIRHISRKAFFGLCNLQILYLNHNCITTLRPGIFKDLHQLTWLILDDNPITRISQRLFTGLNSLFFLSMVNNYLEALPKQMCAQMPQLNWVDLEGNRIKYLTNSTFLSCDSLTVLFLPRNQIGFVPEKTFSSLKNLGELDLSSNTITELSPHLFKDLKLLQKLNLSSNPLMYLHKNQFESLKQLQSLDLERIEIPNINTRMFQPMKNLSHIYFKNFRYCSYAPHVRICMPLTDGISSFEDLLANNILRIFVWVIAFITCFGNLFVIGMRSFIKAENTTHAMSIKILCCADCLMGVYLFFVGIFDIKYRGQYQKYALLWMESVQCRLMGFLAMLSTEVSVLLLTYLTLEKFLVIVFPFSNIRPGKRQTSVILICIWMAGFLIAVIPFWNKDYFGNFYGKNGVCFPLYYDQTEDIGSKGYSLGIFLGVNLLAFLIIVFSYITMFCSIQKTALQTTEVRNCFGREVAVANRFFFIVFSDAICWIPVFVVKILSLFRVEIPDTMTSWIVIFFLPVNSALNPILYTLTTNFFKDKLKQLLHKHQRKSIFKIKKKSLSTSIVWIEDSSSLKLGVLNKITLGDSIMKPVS

## cINSLa: cyclic INSL3 B-chain mimetic; Glu4 and Arg26 replaced with cysteine and a disulphide bond formed (PTPCMREKLCGHHFVRALVRVCGGPCWSTEA; disulfide 4-26; cysteine pairing not given here)
Human LGR8
  inhibition of the response of INSL3 (measured by cAMP response) to the native INSL3 receptor (LGR8): antagonistic activity
[1]
  alpha-helical content from CD spectra: significant alpha-helical content
